Results on seven molecules are retold here after patent publication US12630600B2 (MEDIMMUNE LIMITED, priority 2022, dated 2026).

B1: Peptide 506 (peptide)
peptide: H[Aib]QGTFTSDVSK[αMeF]LDTK([AEEA-AEEA-γGlu-C20 diacid])RARDFVAWLLE[Aib]G-OH
modifications: N-terminus assumed
SMILES: CC(C)C[C@H](NC(=O)[C@H](Cc1c[nH]c2ccccc12)NC(=O)[C@H](C)NC(=O)[C@@H](NC(=O)[C@H](Cc1ccccc1)NC(=O)[C@H](CC(=O)O)NC(=O)[C@H](CCCNC(=N)N)NC(=O)[C@H](C)NC(=O)[C@H](CCCNC(=N)N)NC(=O)[C@H](CCCCNC(=O)COCCOCCNC(=O)COCCOCCNC(=O)CC[C@H](NC(=O)CCCCCCCCCCCCCCCCCCC(=O)O)C(=O)O)NC(=O)[C@@H](NC(=O)[C@H](CC(=O)O)NC(=O)[C@H](CC(C)C)NC(=O)[C@](C)(Cc1ccccc1)NC(=O)[C@H](CCCCN)NC(=O)[C@H](CO)NC(=O)[C@@H](NC(=O)[C@H](CC(=O)O)NC(=O)[C@H](CO)NC(=O)[C@@H](NC(=O)[C@H](Cc1ccccc1)NC(=O)[C@@H](NC(=O)CNC(=O)[C@H](CCC(N)=O)NC(=O)C(C)(C)NC(=O)[C@@H](N)Cc1c[nH]cn1)[C@@H](C)O)[C@@H](C)O)C(C)C)[C@@H](C)O)C(C)C)C(=O)N[C@@H](CC(C)C)C(=O)N[C@@H](CCC(=O)O)C(=O)NC(C)(C)C(=O)NCC(=O)O
B2: Peptide 502 (peptide)
peptide: H[Aib]QGTFTSDVSK[αMeF]LDTK([AEEA-AEEA-γGlu-C20 diacid])RARDFVQWLLR[Aib]A-OH
modifications: N-terminus assumed
SMILES: CC(C)C[C@H](NC(=O)[C@H](Cc1c[nH]c2ccccc12)NC(=O)[C@H](CCC(N)=O)NC(=O)[C@@H](NC(=O)[C@H](Cc1ccccc1)NC(=O)[C@H](CC(=O)O)NC(=O)[C@H](CCCNC(=N)N)NC(=O)[C@H](C)NC(=O)[C@H](CCCNC(=N)N)NC(=O)[C@H](CCCCNC(=O)COCCOCCNC(=O)COCCOCCNC(=O)CC[C@H](NC(=O)CCCCCCCCCCCCCCCCCCC(=O)O)C(=O)O)NC(=O)[C@@H](NC(=O)[C@H](CC(=O)O)NC(=O)[C@H](CC(C)C)NC(=O)[C@](C)(Cc1ccccc1)NC(=O)[C@H](CCCCN)NC(=O)[C@H](CO)NC(=O)[C@@H](NC(=O)[C@H](CC(=O)O)NC(=O)[C@H](CO)NC(=O)[C@@H](NC(=O)[C@H](Cc1ccccc1)NC(=O)[C@@H](NC(=O)CNC(=O)[C@H](CCC(N)=O)NC(=O)C(C)(C)NC(=O)[C@@H](N)Cc1c[nH]cn1)[C@@H](C)O)[C@@H](C)O)C(C)C)[C@@H](C)O)C(C)C)C(=O)N[C@@H](CC(C)C)C(=O)N[C@@H](CCCNC(=N)N)C(=O)NC(C)(C)C(=O)N[C@@H](C)C(=O)O
B3: Peptide 505 (peptide)
peptide: H[Aib]QGTFTSDVSK[αMeF]LDTK([AEEA-AEEA-γGlu-C20 diacid])RAQDFVQWLLE[Aib]K-NH2
modifications: N-terminus assumed
SMILES: CC(C)C[C@H](NC(=O)[C@H](Cc1c[nH]c2ccccc12)NC(=O)[C@H](CCC(N)=O)NC(=O)[C@@H](NC(=O)[C@H](Cc1ccccc1)NC(=O)[C@H](CC(=O)O)NC(=O)[C@H](CCC(N)=O)NC(=O)[C@H](C)NC(=O)[C@H](CCCNC(=N)N)NC(=O)[C@H](CCCCNC(=O)COCCOCCNC(=O)COCCOCCNC(=O)CC[C@H](NC(=O)CCCCCCCCCCCCCCCCCCC(=O)O)C(=O)O)NC(=O)[C@@H](NC(=O)[C@H](CC(=O)O)NC(=O)[C@H](CC(C)C)NC(=O)[C@](C)(Cc1ccccc1)NC(=O)[C@H](CCCCN)NC(=O)[C@H](CO)NC(=O)[C@@H](NC(=O)[C@H](CC(=O)O)NC(=O)[C@H](CO)NC(=O)[C@@H](NC(=O)[C@H](Cc1ccccc1)NC(=O)[C@@H](NC(=O)CNC(=O)[C@H](CCC(N)=O)NC(=O)C(C)(C)NC(=O)[C@@H](N)Cc1c[nH]cn1)[C@@H](C)O)[C@@H](C)O)C(C)C)[C@@H](C)O)C(C)C)C(=O)N[C@@H](CC(C)C)C(=O)N[C@@H](CCC(=O)O)C(=O)NC(C)(C)C(=O)N[C@@H](CCCCN)C(N)=O
B4: Peptide 504 (peptide)
peptide: H[Aib]QGTFTSDVSK[αMeF]LESK([AEEA-AEEA-γGlu-C20 diacid])RAQDFVRWLLE[Aib]K-OH
modifications: N-terminus assumed
SMILES: CC(C)C[C@H](NC(=O)[C@H](Cc1c[nH]c2ccccc12)NC(=O)[C@H](CCCNC(=N)N)NC(=O)[C@@H](NC(=O)[C@H](Cc1ccccc1)NC(=O)[C@H](CC(=O)O)NC(=O)[C@H](CCC(N)=O)NC(=O)[C@H](C)NC(=O)[C@H](CCCNC(=N)N)NC(=O)[C@H](CCCCNC(=O)COCCOCCNC(=O)COCCOCCNC(=O)CC[C@H](NC(=O)CCCCCCCCCCCCCCCCCCC(=O)O)C(=O)O)NC(=O)[C@H](CO)NC(=O)[C@H](CCC(=O)O)NC(=O)[C@H](CC(C)C)NC(=O)[C@](C)(Cc1ccccc1)NC(=O)[C@H](CCCCN)NC(=O)[C@H](CO)NC(=O)[C@@H](NC(=O)[C@H](CC(=O)O)NC(=O)[C@H](CO)NC(=O)[C@@H](NC(=O)[C@H](Cc1ccccc1)NC(=O)[C@@H](NC(=O)CNC(=O)[C@H](CCC(N)=O)NC(=O)C(C)(C)NC(=O)[C@@H](N)Cc1c[nH]cn1)[C@@H](C)O)[C@@H](C)O)C(C)C)C(C)C)C(=O)N[C@@H](CC(C)C)C(=O)N[C@@H](CCC(=O)O)C(=O)NC(C)(C)C(=O)N[C@@H](CCCCN)C(=O)O
B5: Peptide 501 (peptide)
peptide: H[Aib]QGTFTSDVSK[αMeF]LDTK([AEEA-AEEA-γGlu-C18 diacid])RARDFVQWLLR[Aib]A-OH
modifications: N-terminus assumed
SMILES: CC(C)C[C@H](NC(=O)[C@H](Cc1c[nH]c2ccccc12)NC(=O)[C@H](CCC(N)=O)NC(=O)[C@@H](NC(=O)[C@H](Cc1ccccc1)NC(=O)[C@H](CC(=O)O)NC(=O)[C@H](CCCNC(=N)N)NC(=O)[C@H](C)NC(=O)[C@H](CCCNC(=N)N)NC(=O)[C@H](CCCCNC(=O)COCCOCCNC(=O)COCCOCCNC(=O)CC[C@H](NC(=O)CCCCCCCCCCCCCCCCC(=O)O)C(=O)O)NC(=O)[C@@H](NC(=O)[C@H](CC(=O)O)NC(=O)[C@H](CC(C)C)NC(=O)[C@](C)(Cc1ccccc1)NC(=O)[C@H](CCCCN)NC(=O)[C@H](CO)NC(=O)[C@@H](NC(=O)[C@H](CC(=O)O)NC(=O)[C@H](CO)NC(=O)[C@@H](NC(=O)[C@H](Cc1ccccc1)NC(=O)[C@@H](NC(=O)CNC(=O)[C@H](CCC(N)=O)NC(=O)C(C)(C)NC(=O)[C@@H](N)Cc1c[nH]cn1)[C@@H](C)O)[C@@H](C)O)C(C)C)[C@@H](C)O)C(C)C)C(=O)N[C@@H](CC(C)C)C(=O)N[C@@H](CCCNC(=N)N)C(=O)NC(C)(C)C(=O)N[C@@H](C)C(=O)O

Starred links: 1 amine or outer side, 2 acyl side, 3 side chain; linkers in the order of their positions; H or OH if unused. Non-standard residues stand in square brackets, D forms with d. Groups on a side chain read outwards from the residue. No end group written: not given here. *: point of attachment. C20 diacid = O=C(O)CCCCCCCCCCCCCCCCCCC(=O)*; C18 diacid = O=C(O)CCCCCCCCCCCCCCCCC(=O)*; γGlu = O=C(O)[C@H](CCC(=O)[*:2])N[*:1]; αMeF = C[C@](N)(Cc1ccccc1)C(=O)O; AEEA = NCCOCCOCC(=O)O; Aib = CC(C)(N)C(=O)O

In the first test the target is human GLP-1 receptor (human, UniProt P43220). Briefly: cell-based or functional assay.
As for H[Aib]QGTFTSDVSK[αMeF]LDTK([AEEA-AEEA-γGlu-C20 diacid])RARDFVAWLLE[Aib]G-NH2 [Peptide 507], the “cAMP production EC50” value was determined as 0.0529 nM.

On to B1, for which the “cAMP production EC50” value was found to be 0.162 nM.

As to B2, the “cAMP production EC50” value came to 0.0821 nM.

Consider B3, for which the “cAMP production EC50” value came to 0.0421 nM.

With B4, the “cAMP production EC50” value was found to be 0.124 nM.

H[Aib]QGTFTSDVSK[αMeF]LDTK([AEEA-AEEA-γGlu-C20 diacid])RAQDFVRWLLE[Aib]K-OH [Peptide 503]: the “cAMP production EC50” value was 0.0812 nM.

Consider B5, for which the “cAMP production EC50” value was found to be 0.0265 nM.

The target of another test is human glucagon receptor (human, UniProt P47871). The test is described as follows: cell-based or functional assay.
With H[Aib]QGTFTSDVSK[αMeF]LDTK([AEEA-AEEA-γGlu-C20 diacid])RARDFVAWLLE[Aib]G-NH2 [Peptide 507], the “cAMP production EC50” value was 0.0866 nM.

For B1, the “cAMP production EC50” value was determined as 0.149 nM.

On to B2, for which the “cAMP production EC50” value was determined as 0.175 nM.

As to B3, the “cAMP production EC50” value was 0.191 nM.

With B4, the “cAMP production EC50” value worked out at 0.551 nM.

As for H[Aib]QGTFTSDVSK[αMeF]LDTK([AEEA-AEEA-γGlu-C20 diacid])RAQDFVRWLLE[Aib]K-OH [Peptide 503], the “cAMP production EC50” value turned out to be 0.0849 nM.

In the case of B5, the “cAMP production EC50” value worked out at 0.0756 nM.
